Key:
[1] = system: L929 cells (mouse fibroblasts) bearing the TNFR1 receptor; experiment: Cytotoxicity on L929 cells (Cytotox kit, Promega); type: cell-based
Method: L929 cells (mouse fibroblasts) were cultured in DMEM medium (PanEco, RA) supplemented with 10% fetal bovine serum (HyClone, United States). The culture was obtained from the bank of cell lines of the Blokhin Russian Cancer Research Center of the Russian Academy of Medical Sciences. To measure cytotoxicity, proteins and protein complexes were added to the L929 culture at a concentration of 1 nM, unless a different concentration was specified, and incubated for 3 or 20 h. Cytotoxicity was measured using a Cytotox kit (Promega, United States) according to the manufacturer’s method. To inhibit cytotoxicity, blocking antibodies to TNFR1 were used at a concentration of 10 μg/mL (Invitrogen, United States). Data from 5 different experiments are used.

Hsp70 = settings: shown previously; read-out: dissociation constant for Hsp70; cited from earlier work
Method: For 17.1–HspBP1, equal to 3.91 nM is also close to these values. […] It can be assumed that the lack of cytotoxic activity inTag7–HspBP1 is associated with its dissociation upon interaction with cells. Thus, a correlation between the affinity of protei ...

HspBP1 = target: T1, HspBP1 (Homo sapiens, UniProt Q9NZL4); experiment: Microscale thermophoresis, binding to Alexa Fluor 633-labeled HspBP1; settings: labeled HspBP1 200 nM, 20 min incubation, room temperature, 16 concentrations, triplicate; read-out: dissociation constant of the complex with HspBP1, thermophoresis
T1 construct: made in house
T1 sequence (Q9NZL4 1-359): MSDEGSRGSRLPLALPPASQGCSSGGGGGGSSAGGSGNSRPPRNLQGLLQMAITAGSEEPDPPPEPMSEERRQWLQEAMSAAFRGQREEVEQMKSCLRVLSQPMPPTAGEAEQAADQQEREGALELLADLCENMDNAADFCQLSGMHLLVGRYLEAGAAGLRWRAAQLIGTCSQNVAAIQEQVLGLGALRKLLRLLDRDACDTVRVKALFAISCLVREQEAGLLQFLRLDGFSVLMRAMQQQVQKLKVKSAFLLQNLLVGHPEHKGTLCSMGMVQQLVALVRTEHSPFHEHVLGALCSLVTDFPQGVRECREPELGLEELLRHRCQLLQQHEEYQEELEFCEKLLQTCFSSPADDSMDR
Method: Purified HspBP1 was fluorescently labeled using Alexa Fluor 633 (Eugene, OR, United States) according to the manufacturer’s instructions. HspBP1 (200 nM) was incubated for 20 min with each compound in the dark at room temperature at 16 different concentrations obtained by serial dilution starting with the highest soluble concentration. Samples were loaded into glass capillaries (Monolith NT Capillaries) and analyzed by thermophoresis using a Monolith NT 115 nanotemperature instrument (IR laser power 10%). The signal quality was monitored with a NanoTemper Monolith instrument to detect possible ligand autofluorescence, precipitation, aggregation, or ligand-induced changes in photobleaching rate. Experiments were performed in triplicate and processed using affinity analysis software (MO Control v.1.6.1, Nano-Temper).

What does the source list for “Tag7–HspBP1 complex: complex of the Tag7 protein with the HspBP1 protein”?
cytotoxic activity (time not given) [1]: does not have cytotoxic activity; cytotoxic activity after 3 h of incubation ([1]; complexes at 1 nM, 3 h (apoptosis), 5 experiments): did not have cytotoxic activity; cytotoxic activity after 20 h of incubation ([1]; complexes at 1 nM, 20 h (necroptosis), 5 experiments): did not have cytotoxic activity

B1: HspBP1: recombinant co-chaperone that regulates the ATPase activity of Hsp70 (protein, UniProt Q9NZL4 1-359, looked up)
Hsp70-binding protein 1: MSDEGSRGSRLPLALPPASQGCSSGGGGGGSSAGGSGNSRPPRNLQGLLQMAITAGSEEPDPPPEPMSEERRQWLQEAMSAAFRGQREEVEQMKSCLRVLSQPMPPTAGEAEQAADQQEREGALELLADLCENMDNAADFCQLSGMHLLVGRYLEAGAAGLRWRAAQLIGTCSQNVAAIQEQVLGLGALRKLLRLLDRDACDTVRVKALFAISCLVREQEAGLLQFLRLDGFSVLMRAMQQQVQKLKVKSAFLLQNLLVGHPEHKGTLCSMGMVQQLVALVRTEHSPFHEHVLGALCSLVTDFPQGVRECREPELGLEELLRHRCQLLQQHEEYQEELEFCEKLLQTCFSSPADDSMDR
Which “effect on the cytotoxic activity of the Tag7–Hsp70 complex” value ([1]; increasing concentration of HspBP1, Fig. 1a) does the source give for B1 here?
Its value is “inhibits the cytotoxic activity of the Tag7–Hsp70 complex in a dose-dependent manner”.

B2: Tag7: innate immunity protein Tag7, a ligand for the TNFR1 receptor (protein, UniProt O75594 1-196, looked up)
chain: MSRRSMLLAWALPSLLRLGAAQETEDPACCSPIVPRNEWKALASECAQHLSLPLRYVVVSHTAGSSCNTPASCQQQARNVQHYHMKTLGWCDVGYNFLIGEDGLVYEGRGWNFTGAHSGHLWNPMSIGISFMGNYMDRVPTPQAIRAAQGLLACGVAQGALRSNYVLKGHRDVQRTLSPGNQLYHLIQNWPHYRSP
modifications: full-length
notes: innate immunity protein Tag7, a ligand for the TNFR1 receptor
Which Kd (Hsp70) does the source give for B2 here?
Its Kd is 1.73 nM.

What about the Kd (HspBP1) of the same molecule?
The Kd was 328 nM.
